Values quoted from earlier work, collected in article PMC6611588, “Quantitative high-throughput screening assays for the discovery and development of SIRPα-CD47 interaction inhibitors” (PLoS ONE, 2019).
Several values for one entry are separate records, joined by “and”; a condition that tells them apart may be missing. Equal values may be shown once.

Biological target: CD47 (Homo sapiens) (UniProt Q08722)
Conditions: cited from earlier work

Sequence of CD47 (Homo sapiens) (Q08722 19-323): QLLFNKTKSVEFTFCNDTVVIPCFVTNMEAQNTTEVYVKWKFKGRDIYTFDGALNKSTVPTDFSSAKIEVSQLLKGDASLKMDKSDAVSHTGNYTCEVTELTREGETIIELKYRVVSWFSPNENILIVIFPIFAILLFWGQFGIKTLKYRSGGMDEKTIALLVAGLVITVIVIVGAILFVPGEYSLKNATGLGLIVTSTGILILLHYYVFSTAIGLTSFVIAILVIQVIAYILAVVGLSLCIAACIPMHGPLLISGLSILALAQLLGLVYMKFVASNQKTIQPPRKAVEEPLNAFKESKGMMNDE
Sequence of SIRPα (P78324 31-373): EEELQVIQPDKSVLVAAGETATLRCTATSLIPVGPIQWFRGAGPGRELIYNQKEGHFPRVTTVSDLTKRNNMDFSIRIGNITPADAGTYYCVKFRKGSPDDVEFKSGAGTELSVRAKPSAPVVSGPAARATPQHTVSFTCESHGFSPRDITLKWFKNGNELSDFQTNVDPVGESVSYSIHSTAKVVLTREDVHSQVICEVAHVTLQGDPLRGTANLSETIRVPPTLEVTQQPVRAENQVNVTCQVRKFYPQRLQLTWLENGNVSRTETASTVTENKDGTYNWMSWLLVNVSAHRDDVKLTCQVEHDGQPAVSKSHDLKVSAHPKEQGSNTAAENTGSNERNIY

Q: With SIRPα (from UniProt P78324) as the substance, how does the Kd read?
A: 0.3 µM and 0.279 µM
